B1: mRNA-splicing (parent)
chain: AGUUGCUGCUGGGAGCUCCAGCACAGUGAAAUGGACAGAAGGGCAGAGCAA

Variants of: B1
Assay: exon inclusion enrichment index; higher = more inclusion; WT1 exon 5 minigene, HEK293

Variant	exon inclusion enrichment index
G5C C6A U7A C9A U10A	0.906
G5A U7G G8C U10C	2.13
G5C C6A U7C G8A C9G U10A	0.545
G5C C6A U7C G8A C9G U10C	1.42
G5C C6A U7C G8A C9G U10G	0.11
G5A U7C G8A U10C G46C A47G	2.57
G5A U7C G8A U10C G46C A47U	2.03
G5A U7C G8A U10C G46C A47C	1.81
G5A U7C G8A U10G G11A	2.46
G5A U7C G8A U10G G11C	2.55
G5A U7C G8A U10G G11U	2.44
G5C C6A U7C G8A C9U	0.616
G5C C6A U7C G8A C9G	0.446
G5C C6A U7C G8A C9A	0.746
G5C C6A U7C C9A U10A	0.851
G5C C6A U7C C9A U10C	2.61
G5A U7C G8A U10C U32A G33C	2.91
G5A U7C G8A U10C U32A G33A	1.05
G5A U7C G8A U10C U32A G33U	1.68
G5A U7C G8A U10C G38U	0.919
G5A U7C G8A U10C G38A	1.25

Variant	exon inclusion enrichment index
G5A U7C G8A U10C G38C	1.83
G5A U7C G8U C9G U10C	1.91
G5A U7C G8U C9U U10C	1.17
G5A U7C G8A U10C G41C G42U	3.05
G5A U7C G8A U10C G41C G42C	3.27
G5A U7C G8A U10C G41C G42A	2.13
G5C C6A U7A G8U U10A	0.0878
G5C C6A	0.0337
G5C C6A U7C G8A U10A A14C G15A	0.0306
G5A U7C U10C	4.21
G5C C6A U7A G8U C9A	0.415
G5A U7C G8C C9G U10C	1.58
G5A U7G G8A U10C	2.7
G5A U7C G8A U10C G46A A47C	3.08
G5A U7C G8A U10C G46A A47G	0.953
G5A U7C G8A U10C G46A A47U	2.29
G5A U7C G8A U10C G43C C44U	1.59
G5A U7C G8A U10C G43C C44A	3.61
G5A U7C G8A U10C G43C C44G	4.39
G5A U7C G8A U10G	1.28
G5A U7C G8A U10C G38A A39U	0.204

Variant	exon inclusion enrichment index
G5A U7C G8A U10C G38A A39G	2.26
G5A U7C G8A U10C G38A A39C	1.95
G5A U7G U10C	0.936
G5C C6A U7C G8A G11C	1.01
G5C C6A U7C G8A G11A	0.126
G5C C6A U7C G8A G11U	0.768
G5A U7C G8U C9A	0.658
G5A U7C G8A U10C G34U	0.607
G5A U7C G8A U10C G34C	0.949
G5C C6A U7C G8A C9U U10G	0.525
G5C C6A U7C G8A C9U U10C	2.03
G5C C6A U7C G8A C9U U10A	0.0185
G5A U7C G8A U10C U17A	1.89
G5A U7C G8A U10C U17C	1.62
G5A U7C G8A U10C U17G	1.81
G5A U7C G8A U10C U27C	4.31
G5A U7C G8A U10C U27G	1.05
G5A U7C G8A U10C U27A	2.49
G5C	0.147
G5A U7C G8U U10C	1.92
G5C C6A G8A U10A	0.0612

Variant	exon inclusion enrichment index
G5A U7C G8A U10C U32C	3.88
G5A U7C G8A U10C U32G	0.244
G5A U7C G8A U10C U32A	1.87
G5A U7C G8A U10C G34A A35U	0.813
G5A U7C G8A U10C G42U G43C	1.5
G5A U7C G8A U10C G42U G43U	3.03
G5A U7C G8A U10C G42U G43A	3.16
G5A U7C G8A U10C U17A C18U	1.52
G5A U7C G8A U10C U17A C18G	2
G5A U7C G8A U10C U17A C18A	1.29
G5C C6A U7C G8A	0.613
G5A U7G C9A	1.5
G5A U7C G8A U10C U27G G28A	2.37
G5A U7C G8A U10C U27G G28C	1.17
G5A U7C G8A U10C U27G G28U	0.0167
G5A U7C G8A U10C G43A	4.17
G5A U7C G8A U10C G43C	2.52
G5A U7C G8A U10C G43U	1.89
G5C C6A U7C G8A C9A U10C	1.81
G5C C6A U7C G8A C9A U10G	0.428

— the RNAGym collection of RNA variant scans (doi:10.1101/gr.219683.116)
